Experimental findings from US20080119406A1 are described below.

In assay [1] the target is unidentified caltrin binding site on COS-7 monkey kidney cells (monkey). In words: FACS-based binding, anti-caltrin and labelled anti-rabbit antibody.
Assay [2] deals with unidentified caltrin binding site on ST2 osteoblast-like cells. The assay is described as above.
Assay [3] addresses unidentified caltrin receptor on primary mouse calvarial osteoblasts (mouse). The assay is described as follows: competition curve: unlabelled caltrin against 10 ng 125I-caltrin on primary calvarial osteoblasts, 4 C, 2 h.
For assay [4] the target is unchanged. The assay is described as follows: saturation binding of 125I-caltrin on 2×10^5 primary mouse calvarial osteoblasts, Scatchard analysis.

B1: recombinant caltrin (mouse, V5/His-tagged, secreted from baculovirus-infected Sf-9 cells) (ligand, not shown: small tags and cut ends)
chain: LICNSCEKSRDSRCTMPQSRCVAKPGESCSTVSHFVGTKHVYSKQMCSPQCKEKQLNTGKKLIYIMCCEKNLCNSF
B1: in assay [1], the shift in the mean fluorescence is 80%. Besides, the shift in the mean fluorescence in assay [2] is 75%. Further, in assay [3], the Kd (usually the equilibrium constant for the complex coming apart) was 2.2 nM and the binding sites per cell (Bmax) (binding sites per cell) stood at 14000.

B2: ^125I-caltrin (radiolabelled recombinant caltrin) (ligand, not shown: small tags and cut ends)
chain: B1 chain
modifications: 125I label by the lactoperoxidase method; labelled residues not stated
In assay [4], B2 had a Kd of 1.2 nM and a binding sites per cell (binding sites per cell) of 60000.
